Target: the molecule itself
Assay: Coomassie-stained gel; self-association inferred from a band of about 17 kD against a 3.5 kD monomer

B1: C-POD, CGGG(ARKKAAKA)4 (peptide)
peptide: CGGGARKKAAKAARKKAAKAARKKAAKAARKKAAKA
notes: Synthetic peptide with a 3.5 kD monomer; also called cysteine containing POD; cysteine-POD
binding result: binds

From patent publication US20100209447A1 (TUFTS UNIVERSITY, published 2010)
